Laboratory results reported in US20260286002 (published 2026).
Where two headings read alike, the source gives them in different places.

Assays:
human CD39-His [1] = target: T1, human CD39-His (human, UniProt P49961); experiment: BLI
T1 chain: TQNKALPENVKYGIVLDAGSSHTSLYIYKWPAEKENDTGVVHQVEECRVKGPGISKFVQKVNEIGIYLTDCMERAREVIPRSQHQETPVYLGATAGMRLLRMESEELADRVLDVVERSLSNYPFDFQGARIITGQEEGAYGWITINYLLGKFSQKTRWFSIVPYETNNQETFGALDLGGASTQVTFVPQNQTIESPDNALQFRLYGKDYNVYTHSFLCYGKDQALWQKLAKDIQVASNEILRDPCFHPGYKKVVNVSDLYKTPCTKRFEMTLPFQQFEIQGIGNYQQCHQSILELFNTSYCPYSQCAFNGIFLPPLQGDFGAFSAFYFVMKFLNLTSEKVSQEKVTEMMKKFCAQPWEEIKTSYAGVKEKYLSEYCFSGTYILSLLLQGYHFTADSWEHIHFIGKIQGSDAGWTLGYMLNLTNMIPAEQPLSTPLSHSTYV

human CD39-His [2] = target: T1, human CD39-His; experiment: BLI

Kd (human CD39-His [1]): 0.255 nM | Kd (human CD39-His [2]): 0.398 nM
B1: B391-F04 (designed binder)
chain: QLQLVESGGGLVQPGGSLRLSCAASGFTFSNLGMSWYRQAPGKAREWVGSISASGDYTTYQNSVKGRFTISRDNAKNTLYLQMNNLKPEDTGVYYCTRRVDSYPRGQGTQVTVSS
